This note sets out measurements from PMC12149301.

This assay has as its target CDTb D623A + D734A Ca^2+-binding double mutant, active form (Clostridioides difficile). Nature of the assay: cryo-EM structure.

As a reminder, the stoichiometry N is the number of molecules, sites or subunits per partner or assembly. Regarding “CDTb D623A + D734A Ca^2+-binding double mutant, active form (natural protein)”, the stoichiometry N amounted to 7.
